# Test results: patent US20210261685A1 (Alector, published 2021)
# Residue numbers refer to the chain shown, from its start.
# T1: human MerTK extracellular domain (ECD), recombinant (human, UniProt Q12866 21-505)
# T1 construct: also called huMerTK; not shown: polyHis tag or TEVS/Thrombin/murine IgG2a Fc tag
# T1 sequence: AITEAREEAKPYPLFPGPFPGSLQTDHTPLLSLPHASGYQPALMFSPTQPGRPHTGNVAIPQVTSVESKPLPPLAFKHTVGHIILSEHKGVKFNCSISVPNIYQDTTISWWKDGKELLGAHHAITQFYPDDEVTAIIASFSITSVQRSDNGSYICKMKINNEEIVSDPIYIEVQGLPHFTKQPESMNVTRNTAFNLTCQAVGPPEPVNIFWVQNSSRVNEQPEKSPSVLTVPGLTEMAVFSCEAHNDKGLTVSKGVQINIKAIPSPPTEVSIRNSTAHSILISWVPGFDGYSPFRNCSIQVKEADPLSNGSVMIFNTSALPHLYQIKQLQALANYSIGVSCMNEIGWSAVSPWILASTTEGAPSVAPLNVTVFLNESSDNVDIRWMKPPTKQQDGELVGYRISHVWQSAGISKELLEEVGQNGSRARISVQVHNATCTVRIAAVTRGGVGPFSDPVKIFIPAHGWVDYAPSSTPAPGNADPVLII
# T2: murine MerTK extracellular domain (ECD), recombinant (mouse, UniProt Q60805 19-497)
# T2 construct: also called moMerTK; mouse MerTK; not shown: polyHis tag or TEVS/Thrombin/murine IgG2a Fc tag
# T2 sequence: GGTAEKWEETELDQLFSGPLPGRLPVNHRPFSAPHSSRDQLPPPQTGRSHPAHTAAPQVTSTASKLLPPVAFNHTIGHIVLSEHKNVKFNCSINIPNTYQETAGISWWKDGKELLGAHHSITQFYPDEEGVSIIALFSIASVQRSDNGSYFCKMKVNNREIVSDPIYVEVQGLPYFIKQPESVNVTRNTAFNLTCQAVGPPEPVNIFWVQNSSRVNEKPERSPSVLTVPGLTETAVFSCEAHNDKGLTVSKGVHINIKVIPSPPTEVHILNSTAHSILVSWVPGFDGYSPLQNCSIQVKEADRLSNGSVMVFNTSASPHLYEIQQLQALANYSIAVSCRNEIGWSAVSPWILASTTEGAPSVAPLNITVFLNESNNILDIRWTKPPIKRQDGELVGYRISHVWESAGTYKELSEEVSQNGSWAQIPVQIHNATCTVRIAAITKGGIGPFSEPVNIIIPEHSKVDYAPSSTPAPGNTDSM
# B1: MTK-32 (antibody, human IgG1, V domains shown)
# VH: QIQLVQSGPELKKPGETVKISCKASGYTFTSYGMSWVHQAPGKGLKWLGWINTYSGVPTYADDFRGRFAFSLDTSVSTASLEINNLQNEDTATYFCAREDNWAWFAYWGQGTLVTVST
# VL: QIVLSQSPAILSASPGEKVTMTCRATSSVGYMHWYQRKPGSSPKPWIYATSNLASGVPARFSGSGSGTSYSLTISRVEAEDAATYYCQQWSSNPRTFGGGTKLEIK
# B2: MTK-02 (antibody, human IgG1, V domains shown)
# VH: QIQLVQSGPELKQPGETVKISCKASGYTFTDYGVNWVKQAPGKGLKWMGWINTYSGEPTYAGDFKGRFAFSLESSASTAFLQINNLKNEDMATYFCARRVRYWYFDVWGAGTSVTVSS
# VL: B1 VL with K18R, T26N, G30S, R37Q, G63A, I74V, S91G, R95F, G99S
# B3: MTK-08 (antibody, human IgG1, V domains shown)
# VH: B2 VH with Q13K, D31N, V34M, S55T, G62D, S74T, F80Y, M91T, R99E, S113T
# VL: B1 VL with G30S, Y35F, R37Q, T84A, Q89H, S92G
# B4: MTK-36 (antibody, human IgG1, V domains shown)
# VH: QVTLKESGPGILQPSQTLSLTCSFSGFSLSTFGMGVGWIRQPSGKGLEWLAHIWWYDDKYYEPALKSRLTISKDSSKNQVFLKIANVDTADTATYYCARIYYGTSYRYFDVWGTGTTVTVSS
# VL: B1 VL with S14F, G30R, R37Q, S51Y, A54T, Q88H, R95Y
# B5: MTK-14 (antibody, human IgG1, V domains shown)
# VH: QIQLVQSGPELKKPGETVKISCKASGYTFTNYGMNWVKQAPGKDLQWMGWINTYTGEPTYADDFTGRFAFSLETSASTAYLQINNLKNEDTATYFCAKGGHYAWFAYWGQGTLVTVSA
# VL: B1 VL with A25S, T26S, G30S, R37Q, A59G, S91G
# B6: MTK-24 (antibody, human IgG1, V domains shown)
# VH: QVQLQQPGAELVKPGASVKLSCKASGYTFTSYWMHWVKQRPGQGLEWIGMIHPNINTNYNEKFKSKATLTVDISSSTAYMQLSSLTSEDSAVYYCAKRSPYSNYDWYFDVWGTGTTVTVSS
# VL: DIQMTQSPASLSVSVGETVTITCRASENIYSNLAWYQQKQGKSPQLLVYAATNLADGVPSRFSGSGSGTQYSLKINSLQSEDFGSYYCQHFWGTPLTFGAGTKLELK
# B7: MTK-10 (antibody, human IgG1, V domains shown)
# VH: QVTLKESGPGILQPSQTLSLTCSFSGFSLTTSGMGVGWIRQPSGKGLEWLAHIWSDDDKRSNPALKSRLTISQDSSTNQVFLKIASVDTADSATYYCSHLTPVREFAYWGPGTLVTVSE
# VL: DIQMTQTTSSLSASLGDRVTISCSASQGISNYLNWFQQKPDGTVKLLIYYTSRLHSGVPSRFSGSGSGTDFSLTISNLEPEDIATYYCQQYTKLPYTFGGGTKLEIK
# B8: MTK-13 (antibody, human IgG1, V domains shown)
# VH: DVQLQESGPGLVKPSQSLSLTCSVTGYSITSGYYWNWIRQFPGNKLEWMGNIDYDGSNKYNPSLKNRISITRDTSKNHFFLKLNSVTPEDTATYFCARDGGNYRSFAYWGQGTLVTVSA
# VL: QIVLTQSPPIMSASPGEKVTITCSASSSVSYMYWFQQKPGTSPKLWIYSTFNLASGVPARFSGSGSGTSYSLTISRMEAEDVATYYCQQRSSYPFTFGSGTKLEIK
# B9: MTK-26 (antibody, human IgG1, V domains shown)
# VH: AVQFQESGPGLVKLSQSLSLTCSVTGYSITSGYYWDWIRQFPGNKLEWMGYISYDGSNNYNPSLKNRISITRDTSKNQFFLKLNSVTTEDTATYYCAREGGYYRSMDYWGQGTSVTVSS
# VL: B8 VL with P9A, T22A, Y31F, Y33H, K44R, F51S, V82A
# B10: MTK-27 (antibody, human IgG1, V domains shown)
# VH: EVQLQQSGTELVRPGASVKLSCTASGFNIKDDYMHWVQQRPEQGLEWIGWIDPENGNTEYASKFQGKATITADASSNTAYLQLSSLTSEDTAVYYCSTLFSNYFDYWGQGTTLTVSS
# VL: DIVMTQSQKFMSTSVGDRVSITCKASQNVRTSVAWYQQKPGQSPKALIYLASNRHTGVPDRFTGSGSGTDFTLTISNVRSEDLADYFCLQHWNYPYTFGGGTKLEIK
# B11: MTK-30 (antibody, human IgG1, V domains shown)
# VH: QVQLQQPGTELVRPGASVKLSCKASGYTFTSYWMHWVKQRPGQGLEWIGNLNPNNGGTYYNEKFKSKATLTVDKSSSTAYMQLSSLTSEDSAVYYCARQILLYFDYWGQGTTLTVSS
# VL: DVLMTQTPLSLPVSLGDQASISCRSSQSIVHSNGDTYLEWYLQKPGQSPKLLIYKVSNRFSGVPDRFSGSGSGTDFTLKISRVEAEDLGVYYCFQGSHVPWTFGGGTKLEIK
# B12: MTK-31 (antibody, human IgG1, V domains shown)
# VH: QIQLVQSGPELKKSGETVKISCKASGYTFTSYGMSWVKQAPGKGLKWMGWINTYSGVPTYADDFKGRFAFSLETSASTAYLQINNLKNEDTATYFCASLSYDGSLYHAMDYWGQGTSVTVSS
# VL: B11 VL with L3S, C23S, S28T, D35N
# B13: MTK-35 (antibody, human IgG1, V domains shown)
# VH: QVLLQQSGPELVKPGASVQLSCKASDYTFTSYDIHWVKQRPGQGLEWIGWIYPRDGYTKYNEIFKGKATLTVDTSSTTAYMELHSLTSEDSAVYFCARAYYTNWYYFDYWGQGTTLTVSS
# VL: EIVLTQSPTTMAASPGEKITITCRASSSISSHYLHWYQQKPGFSPKLLIYRTSNLASGVPARFSGSGSGTSYSLTIGTMEAEDVATYYCQQGSTIPLTFGAGTKLVLK
# B14: MTK-28 (antibody, human IgG1, V domains shown)
# VH: QIQLVQSGPELKKPGETVKISCKASGYTFTTYGMSWVKQAPGKGLKWMGWINTYSGVPTYADDFKGRFAFSLETSASTAYLQINTLKNEDTTTYFCARFLRYYYFDYWGQGTTLTVSS
# VL: QIVLSQSPVILSASPGEKVTMTCRASSSVTYMHWYQQQPGSSPKPWIYATSNLASGVPARFSGSGSGTSYSLTISRVETEDAATYYCHQWSGNPTFGGGTKLEIN
# Biological target: T1, human MerTK extracellular domain (ECD), …
# Experiment: SPR, Carterra LSA, antibody immobilised
# Summary of the method: (§1)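 Anti-MerTK antibodies diluted to 10 μg/ml in 10 mM Acetate, pH 4.25 were amine-coupled in a 96-spot array onto an HC200M chip activated with MES/sulfo-NHS/EDC, then blocked with 1M Ethanolamine pH 8.5. On a Carterra LSA, recombinant MerTK extracellular domain was injected at 33.3, 100, and 300 nM in HBS-TE with 0.5 mg/ml BSA, lowest to highest without regeneration. KD came from fitted k-on and k-off.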
row,Kd [nM],Binder
1,59,B1
2,22,B2
3,37,B3
4,6.4,B4
5,45,B5
6,41,B6
7,2,B7
8,37,B8
9,30,B9
10,71,B10
11,23,B11
12,81,B12
13,14,B13
14,4.1,B14

# Biological target: T2, murine MerTK extracellular domain …
# Experiment: SPR, Carterra LSA, antibody immobilised
# Summary of the method: as §1
Kd [nM],binding result,Binder
186,,B1
,no binding (tested: 300 nM),B2
,no binding (tested: 300 nM),B3
,no binding (tested: 300 nM),B4
,no binding (tested: 300 nM),B5
55,,B6
,no binding (tested: 300 nM),B7
,no binding (tested: 300 nM),B8
,no binding (tested: 300 nM),B9
,no binding (tested: 300 nM),B10
30,,B11
165,,B12
,no binding (tested: 300 nM),B13
,no binding (tested: 300 nM),B14
